Biological target: the molecule itself
Experiment: SEC; analytical gel filtration, HiLoad 16/60 Superdex 200, 50 mM Tris, 150 mM KCl, pH 8.0, 0.1% LDAO; calibrated with soluble protein standards (B-amylase, carbonic anhydrase, cytochrome c); elution at 72 ml against 71 ml expected for a tetramer

B1: human cardiac ryanodine receptor (RyR2) pore-forming region (domain or fragment, UniProt Q92736 4758-4967, looked up)
chain: SSVTHNGKQLVLTVGLLAVVVYLYTVVAFNFFRKFYNKSEDGDTPDMKCDDMLTCYMFHMYVGVRAGGGIGDEIEDPAGDEYEIYRIIFDITFFFFVIVILLAIIQGLIIDAFGELRDQQEQVKEDMETKCFICGIGNDYFDTVPHGFETHTLQEHNLANYLFFLMYLINKDETEHTGQESYVWKMYQERCWEFFPAGDCFRKQYEDQLN
notes: Cardiac ryanodine receptor RyR2, human, pore-forming region, residues 4758-4967 (printed as 209 residues), up to the natural C-terminus; 27.3 kDa with the tag; also called hRyR2-PFR; RyR2-PFR; source: E. coli Rosetta (DE3) pLysS, pET19b; membranes solubilised in 1% LDAO, purified (Ni-NTA, Superdex 200 gel filtration in 0.1% LDAO); not shown: deca-His, N-terminal, kept
- stoichiometry N: 4

Reference: PMC3680380, “Functional Characterization of the Cardiac Ryanodine Receptor Pore-Forming Region” (PLoS ONE, 2013)
